The record followed here is patent publication US20120100530.

This data set deals with T1, EcoExo I C98S/C306S/C330T (ONLD0366) C98S/C306S/C330T (Escherichia coli) (UniProt P04995).
T1 sequence: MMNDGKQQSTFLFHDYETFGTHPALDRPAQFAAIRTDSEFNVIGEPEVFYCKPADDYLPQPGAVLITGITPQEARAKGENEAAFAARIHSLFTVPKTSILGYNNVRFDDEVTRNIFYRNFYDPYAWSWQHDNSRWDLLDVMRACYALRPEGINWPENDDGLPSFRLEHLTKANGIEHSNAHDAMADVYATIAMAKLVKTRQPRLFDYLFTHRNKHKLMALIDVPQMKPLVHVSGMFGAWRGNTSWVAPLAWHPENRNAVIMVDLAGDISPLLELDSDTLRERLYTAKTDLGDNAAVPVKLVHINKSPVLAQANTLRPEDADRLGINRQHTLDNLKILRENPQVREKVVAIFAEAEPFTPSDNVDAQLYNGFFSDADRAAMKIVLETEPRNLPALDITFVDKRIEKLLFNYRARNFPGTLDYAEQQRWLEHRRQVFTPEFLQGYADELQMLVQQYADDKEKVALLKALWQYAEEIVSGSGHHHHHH
The data set is described as follows: cleavage_in_vitro. Particulars: fluorescein-dT at position 15, BHQ1 on dT at position 1; relative activity of mutants stated higher than wild type.

Exo I assay DNA template: the activity (relative to wild type) was greater than 1.
